Source: patent publication US20120316071A1 (published 2012)

Legend:
[1] = target: T1, Recombinant Human DLL4 (R&D Systems Cat#1506-D4/CF) (human, UniProt Q9NR61 27-524); assay: ECL 96-well plate assay; 0.02 uM Fab, plate coated with 30 ug/mL DLL4
T1 construct: Bought recombinant protein; also called delta-like protein 4; rHuman DLL4

[2] = target: T1, Recombinant Human DLL4 (R&D Systems …); assay: ECL 96-well plate assay; 0.004 uM Fab, plate coated with 15 ug/mL DLL4
[3] = target: T2, rHuman ErbB2/Fc Chimera, CF (R&D Systems Cat#1129-ER) (human, UniProt P04626 23-652); assay: ECL multispot (MSD) assay, antigen spotted on plate, 10 nM Fab;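 note: bound Fab detected with a TAG-labelled detection antibody (1 h, 20 °C), electrochemiluminescence read and compared with each well's blank, signal/blank of 4 or above scored as hit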
T2 construct: Bought recombinant Fc chimera; also called human epidermal growth factor 2 receptor; Fc part of the bought chimera not given

[4] = target: T3, rHuman EGF R/Fc Chimera, CF (R&D Systems Cat#344-ER) (human, UniProt P00533 25-645); assay: as above
T3 construct: Bought recombinant Fc chimera; also called epidermal growth factor receptor; Fc part of the bought chimera not given

[5] = target: T4, rHuman HGF R/c-MET/Fc Chimera, CF (R&D Systems Cat#358-MT/CF) (human, UniProt P08581 25-932); assay: as above
T4 construct: Bought recombinant Fc chimera; also called HGF R/Fc; hepatocyte growth factor receptor; Fc part of the bought chimera not given
T4 sequence (P08581 25-932, change not shown): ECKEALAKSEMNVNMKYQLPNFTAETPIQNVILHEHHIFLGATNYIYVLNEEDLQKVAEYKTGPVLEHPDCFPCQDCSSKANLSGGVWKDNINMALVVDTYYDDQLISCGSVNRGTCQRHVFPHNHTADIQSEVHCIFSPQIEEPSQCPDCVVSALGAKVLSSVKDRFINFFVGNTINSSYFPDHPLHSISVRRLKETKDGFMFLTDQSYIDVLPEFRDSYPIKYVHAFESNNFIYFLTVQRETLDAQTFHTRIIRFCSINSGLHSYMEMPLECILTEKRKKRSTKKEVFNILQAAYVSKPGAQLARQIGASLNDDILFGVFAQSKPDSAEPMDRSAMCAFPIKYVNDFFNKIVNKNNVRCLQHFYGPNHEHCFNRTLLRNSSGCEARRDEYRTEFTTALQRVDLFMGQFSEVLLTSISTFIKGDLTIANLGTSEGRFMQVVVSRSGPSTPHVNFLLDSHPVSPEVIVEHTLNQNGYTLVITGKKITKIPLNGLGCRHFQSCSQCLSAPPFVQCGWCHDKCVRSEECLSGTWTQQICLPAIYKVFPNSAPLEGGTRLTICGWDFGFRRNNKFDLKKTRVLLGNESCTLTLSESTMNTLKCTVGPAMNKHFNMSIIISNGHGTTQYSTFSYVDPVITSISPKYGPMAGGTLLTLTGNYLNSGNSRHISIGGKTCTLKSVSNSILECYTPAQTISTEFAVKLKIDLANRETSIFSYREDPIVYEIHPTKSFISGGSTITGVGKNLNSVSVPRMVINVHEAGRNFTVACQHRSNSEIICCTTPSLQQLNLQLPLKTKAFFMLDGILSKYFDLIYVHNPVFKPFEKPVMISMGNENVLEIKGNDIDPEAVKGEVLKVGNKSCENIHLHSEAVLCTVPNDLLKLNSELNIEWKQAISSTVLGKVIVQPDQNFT

[6] = target: T5, rHuman IGF-1 sR, CF (R&D Systems Cat#391-GR) (human, UniProt P08069 31-932); assay: as above
T5 construct: Bought soluble receptor; also called insulin-like growth factor-1 soluble receptor

[7] = target: T6, rHuman P-Cadherin/Fc Chimera, CF (R&D Systems Cat#861-PC) (human, UniProt P22223 108-654); assay: as above
T6 construct: Bought recombinant Fc chimera; Fc part of the bought chimera not given

[8] = target: T7, Recombinant Human DLL4 (R&D Systems Cat#1506-D4/CF) (human, UniProt Q9NR61 27-524); assay: as above
T7 construct: Bought recombinant protein; also called delta-like protein 4; rHuman DLL4

B1: Fab VH1-46_IGHD6-6*01_IGHJ1*01 S102A & L6_IGKJ1*01 (Fab, V domains shown)
VH: QVQLVQSGAEVKKPGASVKVSCKASGYTFTSYYMHWVRQAPGQGLEWMGIINPSGGSTSYAQKFQGRVTMTRDTSTSTVYMELSSLRSEDTAVYYCAREEYASSSAEYFQHWGQGTLVTVSS
VL: not shown
notes: Fab; heavy chain CDR3 NNK mutant of the parent; Constant parts as for the parent Fab
What does the source list for B1?
Signal/Noise [1]: 51.7; Signal/Noise [2]: 69.8

B2: Fab VH1-46_IGHD6-6*01_IGHJ1*01 S102A/S103P/S104F/H111F & L6_IGKJ1*01 (Fab, V domains shown)
VH: QVQLVQSGAEVKKPGASVKVSCKASGYTFTSYYMHWVRQAPGQGLEWMGIINPSGGSTSYAQKFQGRVTMTRDTSTSTVYMELSSLRSEDTAVYYCAREEYAPFSAEYFQFWGQGTLVTVSS
VL: not shown
notes: Fab expressed in E. coli: VH cloned into Plasmid A (CH1, His6 and Flag tags), kappa VL into Plasmid C (kappa CL); also called APFF; H:APFF & L:wt
B2 was tested. Which ECL signal [3] did it give?
Its ECL signal is 354.

What about the ECL signal [4] of the same binder?
The ECL signal was 383.

What about the ECL signal [5] of the same binder?
The ECL signal was 347.

And the ECL signal [6]?
The ECL signal was 397.

What about the ECL signal [7] of the same binder?
Its ECL signal is 347.

What about the ECL signal [8] of the same binder?
The ECL signal was 78400.

B3: Fab VH1-46_IGHD6-6*01_IGHJ1*01 S102I & L6_IGKJ1*01 (Fab, V domains shown)
VH: QVQLVQSGAEVKKPGASVKVSCKASGYTFTSYYMHWVRQAPGQGLEWMGIINPSGGSTSYAQKFQGRVTMTRDTSTSTVYMELSSLRSEDTAVYYCAREEYISSSAEYFQHWGQGTLVTVSS
VL: not shown
notes: as for B1
How did the Signal/Noise [1] turn out when B3 was run?
The Signal/Noise was 35.3.

And the Signal/Noise [2]?
Its Signal/Noise is 34.5.

B4: Fab VH1-46_IGHD6-6*01_IGHJ1*01 S102Q & L6_IGKJ1*01 (Fab, V domains shown)
VH: QVQLVQSGAEVKKPGASVKVSCKASGYTFTSYYMHWVRQAPGQGLEWMGIINPSGGSTSYAQKFQGRVTMTRDTSTSTVYMELSSLRSEDTAVYYCAREEYQSSSAEYFQHWGQGTLVTVSS
VL: not shown
notes: Fab; heavy chain CDR3 NNK mutant of the parent; Constant parts as for the parent Fab (CH1 with His6/Flag tags, kappa CL)
B4 was tested. Which Signal/Noise [1] did it give?
Its Signal/Noise is 40.6.

What about the Signal/Noise [2] of the same binder?
The Signal/Noise was 31.9.

B5: Fab VH1-46_IGHD6-6*01_IGHJ1*01 S103H & L6_IGKJ1*01 (Fab, V domains shown)
VH: QVQLVQSGAEVKKPGASVKVSCKASGYTFTSYYMHWVRQAPGQGLEWMGIINPSGGSTSYAQKFQGRVTMTRDTSTSTVYMELSSLRSEDTAVYYCAREEYSHSSAEYFQHWGQGTLVTVSS
VL: not shown
notes: as for B1
What does the source list for B5?
Signal/Noise [1]: 21.7; Signal/Noise [2]: 31.7

B6: Fab VH1-46_IGHD6-6*01_IGHJ1*01 S103P & L6_IGKJ1*01 (Fab, V domains shown)
VH: QVQLVQSGAEVKKPGASVKVSCKASGYTFTSYYMHWVRQAPGQGLEWMGIINPSGGSTSYAQKFQGRVTMTRDTSTSTVYMELSSLRSEDTAVYYCAREEYSPSSAEYFQHWGQGTLVTVSS
VL: not shown
notes: as for B1
For B6, which Signal/Noise [1] is on record?
The Signal/Noise was 59.7.

What about the Signal/Noise [2] of the same binder?
The Signal/Noise was 82.4.

B7: Fab VH1-46_IGHD6-6*01_IGHJ1*01 S102V & L6_IGKJ1*01 (Fab, V domains shown)
VH: QVQLVQSGAEVKKPGASVKVSCKASGYTFTSYYMHWVRQAPGQGLEWMGIINPSGGSTSYAQKFQGRVTMTRDTSTSTVYMELSSLRSEDTAVYYCAREEYVSSSAEYFQHWGQGTLVTVSS
VL: not shown
notes: as for B1
For B7, which Signal/Noise [1] is on record?
Its Signal/Noise is 35.9.

And the Signal/Noise [2]?
Its Signal/Noise is 36.5.

B8: Fab VH1-46_IGHD6-6*01_IGHJ1*01 S102G & L6_IGKJ1*01 (Fab, V domains shown)
VH: QVQLVQSGAEVKKPGASVKVSCKASGYTFTSYYMHWVRQAPGQGLEWMGIINPSGGSTSYAQKFQGRVTMTRDTSTSTVYMELSSLRSEDTAVYYCAREEYGSSSAEYFQHWGQGTLVTVSS
VL: not shown
notes: as for B1
With B8 as the binder, how does the Signal/Noise [1] read?
Its Signal/Noise is 5.1.

What about the Signal/Noise [2] of the same binder?
The Signal/Noise was 5.2.

B9: Fab VH1-46_IGHD6-6*01_IGHJ1*01 S103C & L6_IGKJ1*01 (Fab, V domains shown)
VH: QVQLVQSGAEVKKPGASVKVSCKASGYTFTSYYMHWVRQAPGQGLEWMGIINPSGGSTSYAQKFQGRVTMTRDTSTSTVYMELSSLRSEDTAVYYCAREEYSCSSAEYFQHWGQGTLVTVSS
VL: not shown
notes: as for B1
What does the source list for B9?
Signal/Noise [1]: 27.1; Signal/Noise [2]: 27.4

B10: Fab VH1-46_IGHD6-6*01_IGHJ1*01 S103stop & L6_IGKJ1*01 (Fab, V domains shown)
VH: QVQLVQSGAEVKKPGASVKVSCKASGYTFTSYYMHWVRQAPGQGLEWMGIINPSGGSTSYAQKFQGRVTMTRDTSTSTVYMELSSLRSEDTAVYYCAREEYS
VL: not shown
notes: The heavy chain is therefore truncated in CDR3 and carries no CH1 or tags
With B10 as the binder, how does the Signal/Noise [1] read?
Its Signal/Noise is 0.8.

What about the Signal/Noise [2] of the same binder?
The Signal/Noise was 1.1.
